Assay results published in the supplement of paper PMC9170038.

How the values were obtained:
MS2 coat protein [1] = assay: apparent KD of MS2 coat protein, switch ON state; designed switch direction (-1 OFF switch, 1 ON switch): -1; higher = weaker reporter binding; conditions: FMN input: 0 or 200 uM; Eterna round: R93 (includes R88 designs)
How it was run: (§1)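 Binding of SNAP-549-labelled MS2 coat protein was measured on designed RNA switches transcribed on-chip from Illumina sequencing clusters. The protein rose in twofold steps from 0.7 or 1.5 nM to 3 µM, with 0.8–1.5 h per step early on and 10–20 min per step later, in 100 mM Tris-HCl pH 7.5, 80 mM KCl, 4 mM MgCl2, without or with constant ligand. Each design's apparent KD is the median of fits to its normalised cluster binding curves.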

MS2 coat protein [2] = assay: apparent KD of MS2 coat protein, switch OFF state (with FMN for OFF switches, without FMN for ON switches); designed switch direction (-1 OFF switch, 1 ON switch): -1; higher = weaker reporter binding; conditions: FMN input: 0 or 200 uM; Eterna round: R93 (includes R88 designs)
How it was run: as §1

Sequence | apparent KD of MS2 coat protein (MS2 coat protein [1]) [nM] | apparent KD of MS2 coat protein (MS2 coat protein [2]) [nM]
GAAAAGUGAGGAUAUACAUGAGGAUCACCCAUGUGUAUAAAAAAUUACACAAAAGAAAGUAGAAGGCACUAAAG [Mat - Exclusion 3 - Mayanna mod - D113] | 17.7 | 26.5
AAAGGACAAGGAUAUACAUGAGGAUCACCCAUGUAAAAAACAUAAUAAAAGAACUUAUGUAGAAGGUGUCCAAA [69%, Moding Meechl, 8] | 38.3 | 177
AACAAACAUGAGGAUCACCCAUGUGAGGAUAUGAAAAUAAAUAAAAAUAAAAUAAAAAUCAGAAGGCACAACAA [JR_Exc001_Sub003] | 25.6 | 28.2
AAAGAUACAGGAUAUACAUGAGGAUCACCCAUGUUAGACCAAAAAUGGGAAAAAGAAAGUAGAAGGGUAUAAAA [Ex 3 May 35] | 26 | 54.5
CAGUACUGAGGAUAUACAUGAGGAUCACCCAUGUGAUCAAGCUACGAAAGUAGCAAAUGUAGAAGGCAGUACUG [Ex3: 809] | 40.7 | 31.7
AAAAAGCUAGGAUAUACAUGAGGAUCACCCAUGUAAAAAAAAAAAAAGGGAAAAAAAAGUAGAAGGAGCAAAAA [Merankhre Mentuhotep VI] | 18.4 | 26
CGCUAGUCAGGAUAUACGAACAUGUCAAAAGACGUGAAAAAACAUGAGGAUCACCCAUGUAGAAGGGACUAGCG [Mat - Exclusion 2 - JL mod - D17] | 16.2 | 14.9
GGUUGUCGAGGAUAUACAUGAGGAUCACCCAUGUGAGAGAAAAAAGUGAGAAAGAAAAGUAGAAGGUGGUGACG [salish99-ex3-71] | 57.6 | 92.9
AAGAACGUAGGAUAUACAUGAGGAUCACCCAUGUAAAAGAAAGAAGGGAAAGAGAAAAGUAGAAGGACGAAGAA [Wahkare Bakenrenef] | 21.6 | 34.4
GUCCUACAUGAGGAUCACCCAUGUCAGGAUAUGCACCGGUUGCUUUAGACCGGUAAAGGCAGAAGGGACGGGUG [Orzadima] | 23.2 | 19.8
AGAAAACAUGAGGAUCACCCAUGUCAGGAUAUCCAAAUAAAAAUAAAAUAAAAUAAAAGGAGAAGGGACAAAAG [May 1] | 49.2 | 66.9
AAAAAGGGAGGAUAUGCAUACACAAAAAAAAAAAAAAAAAAACAUGAGGAUCACCCAUGUAGAAGGCCCAAAAA [Dora Explored 3 - Jieux - Exclusion 2] | 37.4 | 28.9
CCCAUGUCAGGAUAUCAGUAGUAAAAAAAAAAAAUUACUACUGAGAAGGGACAUGAGGAUCACCCAUGUCCCUU [EX4 314: Super Stable 14] | 16.9 | 14.2
AAUAAGUGAGGAUAUACUAAAGAAAUGAAAAGGGAUAAAGAACAUGAGGAUCACCCAUGUAGAAGGCACAAUAA ['Aper-'Anat] | 31.9 | 37.2
AAAAAGGCAGGAUAUACAUGAGGAUCACCCAUGUAAAAAAAAAAAAAAGGGAAAAAAAGUAGAAGGGCCAAAAA [Along] | 31.1 | 53.4
AAAAAGUGAGGAUAUUCGGAAGGGAAAGCGCAAACCCAACCGAAGAAGGCACAUGAGGAUCACCCAUGUGAAAA [Ecls4-III 65% - Early + late G segment 1] | 21.2 | 33
AUCAUGUUAGGAUAUUAAAGAAAAGAAAAGAAAGAAAAGAAUAAGAAGGAACAUGAGGAUCACCCAUGUAAGAA [EteRNA is fun!] | 30.4 | 29.7
ACUUGACAUGAGGAUCACCCAUGUCAGGAUAUAGUAGGACAAAUAAAUAAAAGUUCUACUAGAAGGGAUAUGGG [Design 20: G-U+ 4] | 20.7 | 36.5
UAAAAUAAAGGAUAUAAAACAGAGGAUAUACAUAAAUAAAAACAUGAGGAUCACCCAUGUAGAAGGCUGAAAAU [Meechl Ex2 R2 m1] | 29 | 28.4
AAGAAGCAAGGAUAUACAUGAGGAUCACCCAUGUAAAAGAAAGAGGGAAAAGAGAAAAGUAGAAGGUGCAAGAA [Ptolemy VI Philometor] | 22.6 | 54.4
AAAAAGUGAGGAUAUACAUGAGGAUCACCCAUGUGAAGGGAAGAAAGAAAGAAAGAAAGUAGAAGGCACAAAAA [Default title] | 51.1 | 222
AACAGUACAGGAUAUACAUGAGGAUCACCCAUGUGAAAAUUAAGUGGGAAACCACAGUGUAGAAGGGUACUGAA [Mat - Exclusion 3 - Eli mod - D55] | 120 | 93
